Measured values as given in US5854204A, “Aβ peptides that modulate β-amyloid aggregation” (priority 1996, dated 1998).

Experiments:
natural β-AP (β-AP1-40) = target: T1, natural β-AP (β-AP1-40) (Homo sapiens, UniProt P05067); assay: Optical density (turbidity, A400 nm) aggregation assay; format: biochemical
T1 construct: Natural β-AP (β-AP1-40) was obtained commercially from Bachem (Torrance, Calif.); purchased Bachem (Torrance, Calif.)
Experimental: In one assay, β-AP aggregation was measured by determining the increase in turbidity of a solution of natural β-AP over time in the absence or presence of various concentrations of the modulator. Turbidity of the solution was quantitated by determining the optical density at 400 nm (A400 nm) of the solution over time.
The aggregation of natural β-AP in the absence of modulator was determined as follows. β-AP1-40 was dissolved in hexafluoro isopropanol (HFIP; Aldrich Chemical Co., Inc.) at 2 mg/ml. Aliquots of the HFIP solution (87 μl) were transferred to individual 10 mm×75 mm test tubes. A stream of argon gas was passed through each tube to evaporate the HFIP. To the resulting thin film of peptide, dimethylsulfoxide (DMSO; Aldrich Chemical Co., Inc.) (25 μl) was added to dissolve the peptide. A 2 mm×7 mm TEFLON™-coated magnetic stir bar was added to each tube. Buffer (475 μL of 100 mM NaCl, 10 mM sodium phosphate, pH 7.4) was added to the DMSO solution with stirring. The resulting mixture was stirred continuously and the optical density was monitored at 400 nm to observe the formation of insoluble peptide aggregates.
Alternatively, β-AP1-40 was dissolved in DMSO as described above at 1.6 mM (6.9 mg/ml) and aliquots (25 μl) were added to stirred buffer (475 μl), followed by monitoring of absorbance at 400 nm. […]

β-AP1-40 = target: T2, β-AP1-40 (Homo sapiens, UniProt P05067); assay: Static aggregation assay (SDS-PAGE); format: biochemical
T2 construct: Natural β-AP (β-AP1-40) was obtained commercially from Bachem (Torrance, Calif.); purchased Bachem (Torrance, Calif.)
T2 sequence (P05067 672-711): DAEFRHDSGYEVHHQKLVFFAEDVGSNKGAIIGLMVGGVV
Experimental: In a third assay, β-AP aggregation was measured by visualization of the peptide aggregates using SDS-polyacrylamide gel electrophoresis (SDS-PAGE). In this assay, β-AP solutions were allowed to aggregate over a period of time and then aliquots of the reaction were run on a standard SDS-PAGE gel. Typical solution conditions were 200 μM of β-AP1-40 in PBS at 37° C. for 8 days or 200 μM β-AP1-40 in 0.1M sodium acetate at 37° C. for 3 days. The peptide aggregates were visualized by Coomassie blue staining of the gel or, for β-AP solutions that included a biotinylated β-AP modulator, by western blotting of a filter prepared from the gel with a streptavidin-peroxidase probe, followed by a standard peroxidase assay. The β-AP aggregates are identifiable as high molecular weight, low mobility bands on the gel, which are readily distinguishable from the low molecular weight, high mobility β-AP monomer or dimer bands.

Aβ peptide = Aβ peptide (Homo sapiens, UniProt P05067); conditions: Camilleri et al. (1994); cited from earlier work
Sequence of Aβ peptide (P05067 672-711 limits assumed): as the sequence (P05067 672-711) above

T1 sequence (P05067 672-711): as above

Row | Molecule | aggregation of natural β-AP1-40 (turbidity, optical density at 400 nm) (natural β-AP (β-AP1-40); modulator at 1% in the natural β-AP1-40 solution) | aggregation of natural β-AP1-40 (turbidity, optical density at 400 nm) (natural β-AP (β-AP1-40); modulator at 5% in the natural β-AP1-40 solution) | aggregation of mixture with natural β-AP1-40 (high molecular weight aggregates on SDS-PAGE) (β-AP1-40; mixture of natural β-AP1-40 and modulator) | self-aggregation of the modulator (high molecular weight aggregates on SDS-PAGE) (β-AP1-40; modulator alone, no natural β-AP) | fibril formation in vitro (Aβ peptide)
1 | N-biotinyl-βAP1-40 | markedly inhibited | similarly inhibited aggregation | reduced amounts of the peptide mixture associated into high molecular weight aggregates | few if any high molecular weight aggregates were observed | 
2 | OC[C@H]1O[C@@H]2O[C@H]3[C@H](O)[C@@H](O)[C@@H](O[C@H]4[C@H](O)[C@@H](O)[C@@H](O[C@H]5[C@H](O)[C@@H](O)[C@@H](O[C@H]6[C@H](O)[C@@H](O)[C@@H](O[C@H]7[C@H](O)[C@@H](O)[C@@H](O[C@H]8[C@H](O)[C@@H](O)[C@@H](O[C@H]1[C@H](O)[C@H]2O)O[C@@H]8CO)O[C@@H]7CO)O[C@@H]6CO)O[C@@H]5CO)O[C@@H]4CO)O[C@@H]3CO [β-cyclodextrin] |  |  |  |  | inhibit fibril formation in vitro
